Experimental data from US20240228595A1.

Biological target: SARS-COV-2 Omicron BA.1.1 spike on HIV-1 based pseudovirus (SARS-CoV-2 Omicron BA.1.1) (UniProt P0DTC2)
Test: cell-based or functional assay

## S309 (Sotrovimab) (antibody)
  pseudovirus neutralization, IC50: 0.533 µg/mL
